This note sets out measurements from article PMC8639739, “Catalytic flexibility of rice glycosyltransferase OsUGT91C1 for the production of palatable steviol glycosides” (Nature Communications, 2021).

Positions count from the first letter of the chain named. Names and notes keep the numbering of the source.

In series [1] the target is T1, OsUGT91C1 (Oryza sativa, UniProt Q0DPB7).
T1 construct: gene Os03g0702000; synthetic coding region in pET28b, His-tagged, E. coli BL21(DE3); HisTrap and gel filtration; tag removal not mentioned; monomer
T1 sequence (Q0DPB7 1-462): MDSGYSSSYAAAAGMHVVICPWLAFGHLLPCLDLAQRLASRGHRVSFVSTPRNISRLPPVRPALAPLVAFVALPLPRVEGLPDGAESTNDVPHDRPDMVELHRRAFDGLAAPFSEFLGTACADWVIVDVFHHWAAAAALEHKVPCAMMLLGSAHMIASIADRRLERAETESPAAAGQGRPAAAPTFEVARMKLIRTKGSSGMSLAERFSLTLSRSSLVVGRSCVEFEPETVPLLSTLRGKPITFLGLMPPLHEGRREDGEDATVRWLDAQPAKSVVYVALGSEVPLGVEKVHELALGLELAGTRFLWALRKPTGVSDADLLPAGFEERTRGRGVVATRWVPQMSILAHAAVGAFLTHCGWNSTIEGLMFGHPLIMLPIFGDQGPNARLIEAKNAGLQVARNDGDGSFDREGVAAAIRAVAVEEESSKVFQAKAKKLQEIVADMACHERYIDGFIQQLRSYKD
In words: X-ray crystal structure. It is filed as binding. The note with it: complexes with Reb E, ST or STB; UDP-glucose site.

Substrate in series [2]: C=C1C[C@@]23CC[C@H]4[C@@](C)(CCC[C@@]4(C)C(=O)O[C@@H]4O[C@H](CO)[C@@H](O)[C@H](O)[C@H]4O)[C@@H]2CC[C@]1(O[C@@H]1O[C@H](CO)[C@@H](O)[C@H](O[C@@H]2O[C@H](CO)[C@@H](O)[C@H](O)[C@H]2O)[C@H]1O[C@@H]1O[C@H](CO)[C@@H](O)[C@H](O)[C@H]1O)C3
In words: purified protein. The note with it: 200 μM UDP-glucose; beta(1-2) glucosylation at R2.

Substrate in series [3]: C=C1C[C@@]23CC[C@H]4[C@@](C)(CCC[C@@]4(C)C(=O)O[C@@H]4O[C@H](CO)[C@@H](O)[C@H](O)[C@H]4O)[C@@H]2CC[C@]1(O[C@@H]1O[C@H](CO)[C@@H](O)[C@H](O)[C@H]1O)C3
In words: UDP-Glo glycosyltransferase assay, Michaelis-Menten fit. It is filed as biochemical, Oryza sativa. To be noted: 200 μM UDP-glucose; combined beta(1-2) glucosylation at R1 and R2.

Substrate in series [4]: C=C1C[C@@]23CC[C@H]4[C@@](C)(CCC[C@@]4(C)C(=O)O)[C@@H]2CC[C@]1(O[C@@H]1O[C@H](CO)[C@@H](O)[C@H](O)[C@H]1O)C3
The series is described as above. In kind it is biochemical, Oryza sativa. To be noted: 200 μM UDP-glucose; beta(1-2) glucosylation at R1.

Substrate in series [5]: C=C1C[C@@]23CC[C@H]4[C@@](C)(CCC[C@@]4(C)C(=O)O)[C@@H]2CC[C@]1(O[C@@H]1O[C@H](CO)[C@@H](O)[C@H](O)[C@H]1O[C@@H]1O[C@H](CO)[C@@H](O)[C@H](O)[C@H]1O)C3
The series is described as above. It is filed as biochemical, Oryza sativa. The note with it: 200 μM UDP-glucose; beta(1-6) glucosylation at R1; crystal structure with UDP, R1 end at active site.

As for `O=c1ccn([C@@H]2O[C@H](COP(=O)(O)OP(=O)(O)O)[C@@H](O)[C@H]2O)c(=O)[nH]1` [UDP], the X-ray crystal structure result in series [1] was “UDP is bound identically in all four complexes”.

B1: OsUGT91C1 (Oryza sativa Japonica Group; F208M) (protein)
chain: T1 sequence (Q0DPB7 1-462) with F208M
notes: synthetic coding region in pET28b, His-tagged, E. coli BL21(DE3); HisTrap and gel filtration; tag removal not mentioned; monomer
In general, Km refers to the concentration of substrate that gives half-maximal velocity. For orientation: kcat means the number of substrate molecules converted per active site and unit of time at saturation. The kcat/Km is the second-order rate constant that governs catalysis at low substrate concentration. For the molecule B1, in series [2], the Km was found to be 25.2 ± 2.0 µM, the turnover number (kcat) is 0.0483 s⁻¹ and the kcat/Km worked out at 1920 M⁻¹ s⁻¹. In series [3], the Km is 20.9 ± 1.7 µM, the kcat was determined as 0.04 ± 0.00167 s⁻¹ and the kcat/Km came out at 1910 M⁻¹ s⁻¹. Besides, in series [4], the Km was 18.7 ± 1.7 µM, the turnover number (kcat) came out at 0.065 ± 0.00167 s⁻¹ and the kcat/Km came to 3480 M⁻¹ s⁻¹.

B2: OsUGT91C1 (Oryza sativa Japonica Group; F379A) (protein)
chain: T1 sequence (Q0DPB7 1-462) with F379A
notes: as for B1
Turning to B2, the Michaelis-Menten constant (Km) stood at 37.0 ± 2.5 µM in series [2], 16.5 ± 2.6 µM in series [3] and 19.0 ± 2.6 µM in series [4]. Also, the catalytic constant (kcat) in series [2] was determined as 0.0193 s⁻¹; in series [3] it was 0.045 ± 0.00167 s⁻¹; in series [4], 0.0967 ± 0.00333 s⁻¹. Besides, the kcat/Km in series [2] stood at 523 M⁻¹ s⁻¹; in series [3] it was 2730 M⁻¹ s⁻¹; in series [4], 5090 M⁻¹ s⁻¹.

B3: OsUGT91C1 (Oryza sativa Japonica Group) (protein)
chain: T1 sequence (Q0DPB7 1-462)
notes: as for B1
Turning to B3, the Michaelis constant (Km) in series [2] came to 45.7 ± 3.0 µM; in series [3], 49.5 ± 5.3 µM; in series [4], 24.9 ± 2.5 µM; in series [5], 71 ± 12 µM. Further, the kcat in series [2] was 0.0203 s⁻¹; in series [3], 0.0333 ± 0.00167 s⁻¹; in series [4] it was 0.0483 ± 0.00167 s⁻¹; in series [5] it was 0.0105 ± 0.0005 s⁻¹. In addition, the catalytic efficiency (kcat/Km) in series [2] was found to be 445 M⁻¹ s⁻¹; in series [3] it was 673 M⁻¹ s⁻¹; in series [4], 1940 M⁻¹ s⁻¹; in series [5], 148 M⁻¹ s⁻¹.

B4: OsUGT91C1 (Oryza sativa Japonica Group; F208M/F379A) (protein)
chain: T1 sequence (Q0DPB7 1-462) with F208M, F379A
notes: as for B1
For the molecule B4, in series [2], the Km came out at 15.1 ± 2.6 µM, the turnover number (kcat) is 0.0283 s⁻¹ and the specificity constant (kcat/Km) stood at 1880 M⁻¹ s⁻¹. Besides, in series [3], the Michaelis-Menten constant (Km) amounted to 11.7 ± 1.0 µM, the kcat is 0.0467 ± 0.00167 s⁻¹ and the specificity constant (kcat/Km) was 3990 M⁻¹ s⁻¹. Besides, in series [4], the Km amounted to 9.7 ± 1.9 µM, the kcat amounted to 0.0583 ± 0.00167 s⁻¹ and the specificity constant (kcat/Km) was 6010 M⁻¹ s⁻¹.
